Experimental data as given in PMC7060279.

Key:
integrin αvβ3 protein [1] = target: integrin αvβ3 protein (UniProt P06756)
integrin αvβ3 protein [2] = target: integrin αvβ3 protein (UniProt P06756); assay: SPR; Biacore T-200; TLR2, TLR4 and integrin αvβ3 immobilised on a CM5 chip by amine coupling; CCN1 as analyte at 25 µl per min, 25 °C, phosphate buffer with 350 mM NaCl, 0.5 mM CaCl2, 0.5 mM MgCl2, 10 µg per ml BSA; global fit to 1:1 Langmuir model, KD = kd/ka

Chain of integrin αvβ3 protein (P06756 31-1048, chain 1 of 2): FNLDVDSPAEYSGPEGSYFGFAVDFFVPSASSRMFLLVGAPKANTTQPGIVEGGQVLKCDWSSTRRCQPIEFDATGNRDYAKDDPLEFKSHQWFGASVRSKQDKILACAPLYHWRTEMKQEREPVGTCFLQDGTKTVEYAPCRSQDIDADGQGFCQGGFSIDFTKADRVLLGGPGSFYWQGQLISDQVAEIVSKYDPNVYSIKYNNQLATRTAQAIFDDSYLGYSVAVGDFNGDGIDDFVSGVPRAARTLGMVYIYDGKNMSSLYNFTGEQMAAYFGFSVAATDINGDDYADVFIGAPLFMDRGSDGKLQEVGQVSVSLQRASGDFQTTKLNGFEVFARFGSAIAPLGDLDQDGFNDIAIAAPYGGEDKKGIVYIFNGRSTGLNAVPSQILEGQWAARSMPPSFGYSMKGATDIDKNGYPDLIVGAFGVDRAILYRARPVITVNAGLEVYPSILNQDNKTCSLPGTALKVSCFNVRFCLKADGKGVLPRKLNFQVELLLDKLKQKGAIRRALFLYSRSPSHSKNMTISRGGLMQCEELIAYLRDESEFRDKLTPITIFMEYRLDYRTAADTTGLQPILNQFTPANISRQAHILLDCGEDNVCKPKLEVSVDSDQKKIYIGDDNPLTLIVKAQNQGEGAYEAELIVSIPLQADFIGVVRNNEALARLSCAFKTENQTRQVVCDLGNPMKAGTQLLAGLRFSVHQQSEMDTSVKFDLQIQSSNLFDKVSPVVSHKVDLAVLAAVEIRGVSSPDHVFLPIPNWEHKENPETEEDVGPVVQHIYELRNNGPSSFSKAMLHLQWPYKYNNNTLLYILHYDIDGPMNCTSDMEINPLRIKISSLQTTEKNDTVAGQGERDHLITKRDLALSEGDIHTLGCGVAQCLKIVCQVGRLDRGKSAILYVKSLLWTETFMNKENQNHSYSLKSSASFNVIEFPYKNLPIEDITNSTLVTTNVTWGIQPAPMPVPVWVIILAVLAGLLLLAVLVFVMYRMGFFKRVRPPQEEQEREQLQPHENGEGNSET
Chain of integrin αvβ3 protein (P05106 27-718, chain 2 of 2, further chain): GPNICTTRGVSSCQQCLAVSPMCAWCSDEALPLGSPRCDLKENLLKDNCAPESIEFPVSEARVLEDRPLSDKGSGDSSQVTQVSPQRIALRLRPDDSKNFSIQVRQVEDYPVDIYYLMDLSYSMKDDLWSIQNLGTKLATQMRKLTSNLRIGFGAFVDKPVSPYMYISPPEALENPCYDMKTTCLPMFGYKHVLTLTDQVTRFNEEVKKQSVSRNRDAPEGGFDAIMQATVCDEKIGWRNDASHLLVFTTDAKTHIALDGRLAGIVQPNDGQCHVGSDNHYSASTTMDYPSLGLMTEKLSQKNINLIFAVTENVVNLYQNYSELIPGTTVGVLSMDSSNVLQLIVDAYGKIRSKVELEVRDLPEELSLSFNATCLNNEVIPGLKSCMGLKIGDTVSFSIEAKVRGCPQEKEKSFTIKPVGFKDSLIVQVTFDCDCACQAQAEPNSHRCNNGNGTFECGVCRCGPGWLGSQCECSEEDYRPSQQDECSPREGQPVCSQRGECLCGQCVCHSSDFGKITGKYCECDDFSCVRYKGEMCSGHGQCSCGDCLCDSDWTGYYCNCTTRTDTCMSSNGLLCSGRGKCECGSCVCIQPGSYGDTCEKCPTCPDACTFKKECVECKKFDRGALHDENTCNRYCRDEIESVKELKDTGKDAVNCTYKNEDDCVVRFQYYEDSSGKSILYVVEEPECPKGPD

phagocytosis of S. aureus bioparticles by BMDMs pretreated with CCN1 (2 µg per ml); obliterated by cilengitide (1 µM); also enhanced in BM-PMNs and THP.1 macrophages (integrin αvβ3 protein [1]): 5 fold
Kd (integrin αvβ3 protein [2]): 202 nM
B1: CCN1-WT (recombinant matricellular protein CCN1) (natural protein)
chain: TCPAACHCPLEAPKCAPGVGLVRDGCGCCKVCAKQLNEDCSKTQPCDHTKGLECNFGASSTALKGICRAQSEGRPCEYNSRIYQNGESFQPNCKHQCTCIDGAVGCIPLCPQELSLPNLGCPNPRLVKVSGQCCEEWVCDEDSIKDSLDDQDDLLGLDASEVELTRNNELIAIGKGSSLKRLPVFGTEPRVLFNPLHAHGQKCIVQTTSWSQCSKSCGTGISTRVTNDNPECRLVKETRICEVRPCGQPVYSSLKKGKKCSKTKKSPEPVRFTYAGCSSVKKYRPKYCGSCVDGRCCTPLQTRTVKMRFRCEDGEMFSKNVMMIQSCKCNYNCPHPNEASFRLYSLFNDIHKFRD
